From EP1798242B1 come the findings set out here.

For experiment [1], the target named is récepteur à l'insuline IR exprimé sur des cellules d'insectes Sf9 (baculovirus) (UniProt P06213). The experiment can be described thus: FACScan on Sf9 insect cells expressing IR (baculovirus), anti-mouse FITC secondary; Tableau 1, column Cellules IR +.
In experiment [2] the target is IGF-IR exprimé sur des cellules d'insectes Sf9 (baculovirus) (UniProt P08069). The experiment can be described thus: FACScan on Sf9 insect cells expressing IGF-IR (baculovirus), anti-mouse FITC secondary; Tableau 1, column Cellules IGF1R +.
Experiment [3] shares this target. Put plainly: FACScan on Sf9 insect cells expressing IGF-IR (baculovirus), secondary antibody alone; Tableau 1, column Cellules IGF1R +.
Experiment [4] concerns the target récepteur à l'insuline IR exprimé sur des cellules d'insectes Sf9 (baculovirus) (UniProt P06213). The experiment can be described thus: FACScan on Sf9 insect cells expressing IR (baculovirus), secondary antibody alone; Tableau 1, column Cellules IR +.

For the substance “AcM commercial αIR3 (anti-IGF-IR) (antibody)”, the MFI (Moyenne de l'intensité de fluorescence) came to 32 in experiment [1] and 35 in experiment [2].
For the substance Anti-souris FITC (antibody), the MFI (Moyenne de l'intensité de fluorescence) was 9 in experiment [3] and 13 in experiment [4].
